Source: PMC5582136

What was measured:
[1] = target: fibrillin-1 cbEGF22-TB4 domain pair (residues 1486–1605) (human) (UniProt P35555); assay: SPR
[2] = target: fibrillin-1 TB4-cbEGF23 domain pair (residues 1527–1647) (human) (UniProt P35555); assay: SPR

fold difference in Ka against TB4-cbEGF23 [1]: 2 fold
koff [2]: 0.0016 s⁻¹
Substance: native αVβ3 integrin purified from human placental extract (from UniProt P05106 27-788) (receptor)
